Data on 94 variants can be found in the supplement of paper PMC10567573.

B1: ANKRD40 (parent)
chain: VCCCELGVNPDQVEKIRKLPNTLL
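Further: lentivirally expressed fusions sorted by FACS into six bins by GFP to DsRed ratio, PSI derived from sequencing read proportions per bin multiplied by bin number.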

Variants of B1 are the subject of the series. Put plainly: protein stability index of a GFP-peptide fusion (GPS, HEK-293T) (PSI 1-6); higher = more stable. The settings on record: c terminus: a fixed tail appended.
Consider VCCCELGVNPDQVEKIRKLPNTML [L23M], for which the protein stability index came to 1.89.
For the variant VCCCELGVNPDQVEKIRKLPNTDL [L23D], the protein stability index worked out at 2.31.
As for VCCCELGVNPDQVEKIRKLPNTVL [L23V], the figure is 2.25.
As for VCCCELGVNPDQVEKIRKLPNTEL [L23E], the figure is 3.05; as for VCCCELGVNPDQVEKIRKLPNTNL [L23N], 2.05; as for VCCCELGVNPDQVEKIRKLPNTQL [L23Q], 2.35.
The result for VCCCELGVNPDQVEKIRKLPNTKL [L23K] reads 2.36; that for VCCCELGVNPDQVEFIRKLPNTLL [K15F], 2.06; that for VCCCELGVNPDQVEWIRKLPNTLL [K15W], 2.53.
Turning to VCCCELGVNPDQVEDIRKLPNTLL [K15D], the protein stability index amounted to 2.17.
As for VCCCELGVNPDQVERIRKLPNTLL [K15R], the figure is 2.21; as for VCCCELGVNPDQVEMIRKLPNTLL [K15M], 1.76.
Take VCCCELGVNPDQVEGIRKLPNTLL [K15G]: the protein stability index is 1.41.
In the case of VCCCELGVNPDQVETIRKLPNTLL [K15T], the protein stability index came out at 1.66.
For VCCCELGVNPDQVEPIRKLPNTLL [K15P], the protein stability index was 2.07.
On to VCCCELKVNPDQVEKIRKLPNTLL [G7K], for which the protein stability index is 2.42.
As to VCCCELHVNPDQVEKIRKLPNTLL [G7H], the protein stability index stood at 2.45.
As for VCCCELCVNPDQVEKIRKLPNTLL [G7C], the figure is 2.6.
As to VCCCELFVNPDQVEKIRKLPNTLL [G7F], the protein stability index was found to be 2.27.
As for VCCCELAVNPDQVEKIRKLPNTLL [G7A], the figure is 2.02; as for VCCCELMVNPDQVEKIRKLPNTLL [G7M], 1.7.
Consider VCCCELPVNPDQVEKIRKLPNTLL [G7P], for which the protein stability index is 1.76.
Regarding SCCCELGVNPDQVEKIRKLPNTLL [V1S], the protein stability index is 2.4.
The result for RCCCELGVNPDQVEKIRKLPNTLL [V1R] reads 1.99; that for ACCCELGVNPDQVEKIRKLPNTLL [V1A], 1.66; that for MCCCELGVNPDQVEKIRKLPNTLL [V1M], 2.
As for TCCCELGVNPDQVEKIRKLPNTLL [V1T], the protein stability index came to 1.71.
The result for NCCCELGVNPDQVEKIRKLPNTLL [V1N] reads 2.31; that for GCCCELGVNPDQVEKIRKLPNTLL [V1G], 1.68.
With VCCCFLGVNPDQVEKIRKLPNTLL [E5F], the protein stability index was found to be 3.32.
VCCCLLGVNPDQVEKIRKLPNTLL [E5L]: the protein stability index is 2.28.
Consider VCCCQLGVNPDQVEKIRKLPNTLL [E5Q], for which the protein stability index was 1.71.
As for VCCCKLGVNPDQVEKIRKLPNTLL [E5K], the figure is 2.22; as for VCCCNLGVNPDQVEKIRKLPNTLL [E5N], 1.97; as for VCCCCLGVNPDQVEKIRKLPNTLL [E5C], 1.1.
Consider VCCCALGVNPDQVEKIRKLPNTLL [E5A], for which the protein stability index was 1.84.
For VHCCELGVNPDQVEKIRKLPNTLL [C2H], the protein stability index was found to be 2.65.
In the case of VACCELGVNPDQVEKIRKLPNTLL [C2A], the protein stability index came out at 2.85.
As for VNCCELGVNPDQVEKIRKLPNTLL [C2N], the figure is 2.7; as for VPCCELGVNPDQVEKIRKLPNTLL [C2P], 3.22; as for VICCELGVNPDQVEKIRKLPNTLL [C2I], 1.62.
As for VKCCELGVNPDQVEKIRKLPNTLL [C2K], the figure is 2.63; as for VLCCELGVNPDQVEKIRKLPNTLL [C2L], 2.04; as for VVCCELGVNPDQVEKIRKLPNTLL [C2V], 3.24.
As for VMCCELGVNPDQVEKIRKLPNTLL [C2M], the figure is 2.4; as for VCTCELGVNPDQVEKIRKLPNTLL [C3T], 2.38.
Consider VCMCELGVNPDQVEKIRKLPNTLL [C3M], for which the protein stability index stood at 2.29.
As for VCDCELGVNPDQVEKIRKLPNTLL [C3D], the figure is 2.31; as for VCWCELGVNPDQVEKIRKLPNTLL [C3W], 1.81.
VCECELGVNPDQVEKIRKLPNTLL [C3E]: the protein stability index was 2.77.
The result for VCHCELGVNPDQVEKIRKLPNTLL [C3H] reads 2.18; that for VCSCELGVNPDQVEKIRKLPNTLL [C3S], 2.09.
The result for VCRCELGVNPDQVEKIRKLPNTLL [C3R] reads 2.1; that for VCQCELGVNPDQVEKIRKLPNTLL [C3Q], 1.96; that for VCACELGVNPDQVEKIRKLPNTLL [C3A], 2.42.
As for VCCCELGVNPDQVSKIRKLPNTLL [E14S], the figure is 1.45.
With VCCCELGVNPDQVCKIRKLPNTLL [E14C], the protein stability index amounted to 1.71.
The result for VCCCELGVNPDQVMKIRKLPNTLL [E14M] reads 1.53; that for VCCCELGVNPDQVHKIRKLPNTLL [E14H], 2.08; that for VCCCELGVNPDQVQKIRKLPNTLL [E14Q], 1.48.
Regarding VCCCELGVNPDQVLKIRKLPNTLL [E14L], the protein stability index came out at 2.13.
As for VCCCELGVNPDQVAKIRKLPNTLL [E14A], the figure is 2.3; as for VCCCELGVNPDQVNKIRKLPNTLL [E14N], 1.91; as for VCCCELGVNPDQVEKIGKLPNTLL [R17G], 1.45.
The result for VCCCELGVNPDQVEKIDKLPNTLL [R17D] reads 2.21; that for VCCCELGVNPDQVEKISKLPNTLL [R17S], 1.94.
As for VCCCELGVNPDQVEKIHKLPNTLL [R17H], the protein stability index is 2.23.
VCCCELGVNPDQVEKICKLPNTLL [R17C]: the protein stability index is 1.46.
As for VCCCELGVNPDQVEKITKLPNTLL [R17T], the protein stability index came out at 1.47.
The result for VCCCELGVNPDQVEKIEKLPNTLL [R17E] reads 2.31.
As for VCCCELGVNPDQVEKILKLPNTLL [R17L], the figure is 1.78; as for VCCCELGVNPDQVEKIMKLPNTLL [R17M], 1.9.
The result for VCCCELGVNEDQVEKIRKLPNTLL [P10E] reads 2.11; that for VCCCELGVNHDQVEKIRKLPNTLL [P10H], 2; that for VCCCELGVNSDQVEKIRKLPNTLL [P10S], 1.89.
With VCCCELGVNQDQVEKIRKLPNTLL [P10Q], the protein stability index turned out to be 2.02.
In the case of VCCCELGVNIDQVEKIRKLPNTLL [P10I], the protein stability index was 1.8.
In the case of VCCCELGVNWDQVEKIRKLPNTLL [P10W], the protein stability index was determined as 1.88.
The result for VCCCELGVNADQVEKIRKLPNTLL [P10A] reads 2.14; that for VCCCELGVNFDQVEKIRKLPNTLL [P10F], 2.23.
The result for VCCCELGVNRDQVEKIRKLPNTLL [P10R] reads 2.35; that for VCCCELGVNDDQVEKIRKLPNTLL [P10D], 2.2; that for VCCCELGVNCDQVEKIRKLPNTLL [P10C], 1.94.
The result for VCCCELGVNNDQVEKIRKLPNTLL [P10N] reads 2; that for VCCCELGVNLDQVEKIRKLPNTLL [P10L], 2.17.
With VCCCELGVNMDQVEKIRKLPNTLL [P10M], the protein stability index was found to be 1.55.
As for VCCCELGVNPDQVEKIRKLPMTLL [N21M], the figure is 1.84; as for VCCCELGVNPDQVEKIRKLPVTLL [N21V], 1.83; as for VCCCELGVNPDQVEKIRKLPITLL [N21I], 2.15.
In the case of VCCCELGVNPDQVEKIRKLPTTLL [N21T], the protein stability index came out at 2.04.
Regarding VCCCELGVNPDQVEKIRKLPQTLL [N21Q], the protein stability index is 1.74.
The result for VCCCELGVNPDQVEKIRKLPWTLL [N21W] reads 1.32; that for VCCCELGVNPDQVEKIRKLPFTLL [N21F], 1.95.
As for VCCCELGVNPDQVEKIRKLPHTLL [N21H], the figure is 1.83.
